Columns and labels:
[1] = target: Acinetobacter drug efflux (Ade)J multidrug efflux pump of A. baumannii Ab0057 (Acinetobacter baumannii Ab0057) (UniProt Q2FD94); test: cryo-EM structure; single-particle cryo-EM of 10 μM AdeJ in lipidic nanodiscs, incubated with 20 μM eravacycline for 1 h; two classes in one sample (apo-AdeJ trimer and AdeJ-Era trimer); 20 mM Tris-HCl pH 7.5, 100 mM NaCl
[2] = target: T1, AdeJ multidrug efflux pump (Acinetobacter baumannii, UniProt Q2FD94); test: single-particle cryo-EM structure ([…] A); conditions: 10 uM AdeJ-nanodisc with 20 uM eravacycline (dihydrochloride), 1 h; distal drug-binding site of the binding-state protomer, one molecule per trimer; no Mg2+ seen at the site
T1 construct: full-length, 1,058 residues (1,046 built per protomer); N-terminal 6xHis tag (pET15b); expressed in E. coli BL21(DE3) delta-acrB; DDM-purified, reconstituted in MSP 1E3D1 lipidic nanodiscs; homotrimer

Compound	stoichiometry N [1]	single-particle cryo-EM structure (2.86 A) [2]
Acinetobacter drug efflux (Ade)J multidrug efflux pump of A. baumannii Ab0057 (from UniProt Q2FD94 1-1058) (natural protein)	3	–
CN(C)[C@@H]1C(=O)C(C(N)=O)=C(O)[C@@]2(O)C(=O)C3=C(O)c4c(O)c(NC(=O)CN5CCCC5)cc(F)c4C[C@H]3C[C@@H]12 [eravacycline]	–	large density corresponds to the bound Era drug located at the distal multidrug-binding site

— PMC8263017, “Cryo-EM Determination of Eravacycline-Bound Structures of the Ribosome and the Multidrug Efflux Pump AdeJ of Acinetobacter baumannii” (mBio, 2021)
